Laboratory results published in publication PMC10182836.

Biological target: H3-tailless nucleosomes (nucleosomes with the first 33 residues of H3 removed) (human) (UniProt P04908)

Question: “Pho4ΔN (AA 250–312) (from UniProt P07270 250-312) (domain or fragment)” was tested. Which fold reduction of S1/2 on H3-tailless nucleosomes did it give?
Answer: 3.1 fold

Question: Which fold reduction of S1/2 on H3-tailless nucleosomes does the source give for “Cbf1ΔN (residues 209–351) (from UniProt P17106 209-351) (domain or fragment)” here?
Answer: 1.3 fold
